Experimental data published in patent US20250326813A1 (ELPIS BIOPHARMACEUTICALS, published 2025).
Changes are numbered by the printed parent chain. In names and notes the source's numbering stands.

B1: EP661, EP575 back-mutation clone (ligand)
chain: APASSSTKKTQLQLEHLLLDLQMILNGINNYKNPLLTDMLTRKFYMPKKATELKHLQCLEEELKPLEEVLNLAQSKNFHLRPKGLISNISNIVLALKGSETTFMCEYADETATIVEFLNRWITFSQSIISTLT
notes: Mammalian-produced, His-tagged
B2: EP658, EP575 back-mutation clone (ligand)
chain: B1 chain with K83R, N88D
notes: as for B1
B3: EP669, EP575 back-mutation clone (ligand)
chain: B1 chain with N88D
notes: as for B1
B4: EP665, EP575 back-mutation clone (ligand)
chain: B1 chain with P82N, K83R, N88D, S90N
notes: as for B1
B5: EP671, EP575 back-mutation clone (ligand)
chain: B1 chain with S87G, N88D, S90N
notes: as for B1
B6: EP668, EP575 back-mutation clone (ligand)
chain: B1 chain with K83R, S87G, N88D
notes: as for B1
B7: EP675, EP575 back-mutation clone (ligand)
chain: B1 chain with P82N
notes: as for B1
B8: EP662, EP575 back-mutation clone (ligand)
chain: B1 chain with N88D, S90N
notes: as for B1
B9: EP575, mammalian cell-produced (ligand)
chain: B1 chain with P82N, L85I, I86L, S87G, N88D
notes: also called 2021EP16-D09
B10: EP576, mammalian cell-produced, with F35L, R38D and F42R (ligand)
chain: APASSSTKKTQLQLEHLLLDLQMILNGINNYKNPLLTDMLTRKFYMPKKATELKHLQCLEEELKPLEEVLNLAQSKNFHLLPRNKISKTKVMVHELKGSETTFMCEYADETATIVEFLNRWITFSQSIISTLT
notes: His-Flag tag not in the parts; also called 2021EP21-C10
B11: EP580, mammalian cell-produced, with F35L, R38D and F42R (ligand)
chain: APASSSTKKTQLQLEHLLLDLQMILNGINNYKNPLLTDMLTRKFYMPKKATELKHLQCLEEELKPLEEVLNLAQSKNFHLRIRDLLNKINELHRYIKGSETTFMCEYADETATIVEFLNRWITFSQSIISTLT
notes: His-Flag tag not in the parts; also called 2021EP16-H09
B12: EP568 (clone 2021EP16-H06), E. coli-produced (ligand)
chain: APASSSTKKTQLQLEHLLLDLQMILNGINNYKNPKLTRMLTFKFYMPKKATELKHLQCLEEELKPLEEVLNLAQSKNFHLLAKRTVSNMYVRVEELKGSETTFMCEYADETATIVEFLNRWITFSQSIISTLT
B13: EP573, mammalian cell-produced, with F35L, R38D and F42R (ligand)
chain: APASSSTKKTQLQLEHLLLDLQMILNGINNYKNPLLTDMLTRKFYMPKKATELKHLQCLEEELKPLEEVLNLAQSKNFHLNRTDLVGDVNATIKALKGSETTFMCEYADETATIVEFLNRWITFSQSIISTLT
notes: His-Flag tag not in the parts; also called 2021EP16-E02
B14: EP567, mammalian cell-produced (ligand)
chain: APASSSTKKTQLQLEHLLLDLQMILNGINNYKNPLLTDMLTRKFYMPKKATELKHLQCLEEELKPLEEVLNLAQSKNFHLSLREPIGNIVTSVRELKGSETTFMCEYADETATIVEFLNRWITFSQSIISTLT
notes: also called 2021EP21-C04
B15: EP581, mammalian cell-produced (ligand)
chain: B1 chain with P82S, K83R, G84E, L85V, I86V, N88R, S90D, N91A, V93I, A95E
notes: also called 2021EP16-C10

Molecular target: T1, human IL2Rα Fc fusion protein (human, UniProt P01589 22-213, limits assumed)
T1 construct: also called CD25; not shown: Fc part
T1 sequence (looked up): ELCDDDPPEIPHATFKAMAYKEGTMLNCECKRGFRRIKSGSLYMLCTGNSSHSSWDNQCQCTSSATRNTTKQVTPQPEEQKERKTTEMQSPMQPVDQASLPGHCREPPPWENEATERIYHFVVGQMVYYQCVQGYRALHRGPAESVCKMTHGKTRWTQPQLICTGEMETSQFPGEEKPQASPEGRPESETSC
Assay: ELISA on coated receptor-Fc, anti-His detection, single point 10 µM
Description: (§1) Back-mutations were characterized for their binding activities to IL2Rβ and IL2Rα receptors by ELISA. Briefly, 384 well plate was immobilized with human IL2Rα and IL2Rβ Fc fusion proteins at a final concentration of 2 μg/mL in 1× PBS in total volume of 25 μL per well. The plate was incubated overnight at 4° C. and blocked with 80 μL of superblock per well for 1 hour. […] The IL2 mutant binding was detected by adding 25 μL of anti-His HRP diluted at 1:5000 in 1× PBST. In between each step, the plate was washed three times with 1× PBST using a plate washer. […] The plate was then developed with 25 μL of TMB substrate for five minutes and stopped by adding 25 μl of 2N sulfuric acid. The plate was read at OD450 nm Biotek plate reader (Table 6) and the data was analyzed with Prism 8.1 software to generate bar graph (FIG. 5).

Binder | Average OD (450 nm) [OD450]
B1 | 0.11
B2 | 0.12
B3 | 0.082
B4 | 0.077
B5 | 0.082
B6 | 0.113
B7 | 0.084
B8 | 0.083
B9 | 0.113

Molecular target: T2, human IL2Rβ Fc fusion protein (human, UniProt P14784 27-239)
T2 construct: also called ILR2β; CD122; not shown: Fc part
T2 sequence (looked up): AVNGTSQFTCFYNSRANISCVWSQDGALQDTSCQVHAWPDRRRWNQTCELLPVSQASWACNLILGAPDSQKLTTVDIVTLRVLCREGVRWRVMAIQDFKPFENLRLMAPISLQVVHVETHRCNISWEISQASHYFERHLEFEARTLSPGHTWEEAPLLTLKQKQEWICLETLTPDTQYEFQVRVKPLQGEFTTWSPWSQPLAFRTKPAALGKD
Assay: as above
Description: as §1

Binder | Average OD (450 nm) [OD450]
B1 | 0.501
B2 | 0.87
B3 | 0.082
B4 | 0.096
B5 | 0.09
B6 | 0.17
B7 | 0.082
B8 | 0.083
B9 | 0.093

Molecular target: T2, human IL2Rβ Fc fusion protein
Assay: ELISA: human IL2Rβ Fc fusion coated at 2 µg/mL, purified His-tagged IL2 titrated from 1 µM in 5x steps, anti-His HRP, OD450
Description: (§2) Mammalian cell-produced agonists were characterized for their binding activities to respective IL2Rβ and IL2Rα receptors by ELISA. Briefly, 384 well plate was immobilized with human IL2Rα and IL2Rβ Fc fusion proteins at a final concentration of 2 μg/mL in 1× PBS in total volume of 25 μL per well. The plate was incubated overnight at 4° C. and blocked with 80 μL of superblock per well for 1 hour. The purified clones were added to IL2Rα or IL-2Rβ wells in parallel in duplicates as a titration, with the highest concentration of 1 μM, followed by a 10 point 5× serial dilution of the clones. The binding activity was detected by adding 25 μL of anti-His HRP diluted at 1:5000 in 1× PBST. In between each step, the plate was washed three times with 1× PBST using a plate washer. The plate was then developed with 25 μL of TMB substrate for five minutes and stopped by adding 25 μL of 2N sulfuric acid. The plate was read at OD450 nm Biotek plate reader and the bar graph at 1 μM of IL2 was generated with Prism 8.1 software (FIG. 2).

Binder | binding result
B10 | no binding (tested: 1000 nM)
B11 | no binding (tested: 1000 nM)

Molecular target: T1, human IL2Rα Fc fusion protein
Assay: ELISA, single concentration, anti-flag detection, E. coli-produced clone
Description: (§3) Supernatants containing engineered IL2 mutants were assessed with sandwich ELISA assay to screen for IL2Rα binding. Briefly, 96-well plate was immobilized with human Fc and human IL2Rα, respectively, at a final concentration of 2 μg/mL in 1× PBS in total volume of 50 μL per well. The plate was incubated overnight at 4° C. followed by blocking with 200 μL of superblock per well for 1 hour. 100 μl of supernatant was added to both Fc and IL2Rα immobilized wells and incubated for 1 hour with shaking. The engineered IL2 mutant binding was detected by adding 50 μL of anti-Flag HRP diluted at 1:5000 in 1× PBST. In between each step, the plate was washed three times with 1× PBST in a plate washer. The plate was then developed with 50 μL of TMB substrate for five minutes and stopped by adding 50 μL of 2N sulfuric acid. The plate was read at OD450 nm using a Biotek plate reader and the binding and selectivity was analyzed.
as §3, with “Single clones were next screened for IL2Rβ binding. IL2Rβ binding screening ELISA was developed for the identification of individual” for “Supernatants containing”, “mutant.” for “mutants were assessed with sandwich ELISA assay to screen for IL2Rα binding.”, “IL2Rβ,” for “IL2Rα,”, “IL2Rβ” for “IL2Rα”
(§4) To further triage, the engineered IL2 clones with unique sequences were produced in E. coli. In short, the glycerol stock of each engineered agonist clone was inoculated into TB medium for overnight growth. The next day, cells from the overnight culture were inoculated into TB medium and grown to a cell density of OD₆₀₀ between 0.6-0.8. IPTG was added to a final concentration of 1 mM to induce the expression during culture at 30° C. overnight. The supernatant was collected by centrifugation.

Binder | OD450 nm [OD450]
B12 | 1.25

Molecular target: T2, human IL2Rβ Fc fusion protein
Assay: as above
Description: as §3
as §3, with “Single clones were next screened for IL2Rβ binding. IL2Rβ binding screening ELISA was developed for the identification of individual” for “Supernatants containing”, “mutant.” for “mutants were assessed with sandwich ELISA assay to screen for IL2Rα binding.”, “IL2Rβ,” for “IL2Rα,”, “IL2Rβ” for “IL2Rα”
as §4

Binder | OD450 nm [OD450]
B12 | 0.105

Molecular target: T1, human IL2Rα Fc fusion protein
Assay: ELISA on coated receptor-Fc, anti-His detection
Description: as §2

Binder | binding result
B11 | no binding (tested: OD450 < 0.1; 1 µM)
B13 | no binding (tested: OD450 < 0.1; 1 µM)

Molecular target: T1, human IL2Rα Fc fusion protein
Assay: ELISA on coated receptor-Fc, anti-His detection; grade by OD450 (weak: 0.3-0.7)
Description: as §2

Binder | OD450 [od]
B14 | 0.3 to 0.7
B15 | 0.3 to 0.7

Molecular target: T2, human IL2Rβ Fc fusion protein
Assay: as above
Description: as §2

Binder | OD450 [od]
B14 | 0.3 to 0.7
B15 | 0.3 to 0.7
B13 | 0.3 to 0.7
B9 | 0.3 to 0.7

Molecular target: T2, human IL2Rβ Fc fusion protein
Assay: SPR (Biacore T200), receptor captured on Protein A chip
Description: The assay was run with Biacore T200 control software version 2.0. For each cycle, 1 μg/mL of human IL2Rβ or IL2Rα was captured for 60 seconds at flow rate of 10 μL/min on flow cell 2 in 1× HBSP buffer on Protein A sensor chip. 100 nM and 20 nM of HIS tag purified engineered IL2 mutant was injected onto both reference flow cell 1 and IL2Rβ or IL2Rα captured flow cell 2 for 150 seconds at flow rate of 30 μL/min followed by washing for 300 seconds. The flow cells were then regenerated with Glycine pH 2 for 60 seconds at a flow rate of 30 μL/mins. The kinetics data was analyzed with Biacore T200 evaluation software 3000. The specific binding response unit was derived from subtraction of binding to reference flow cell 1 from target flow cell 2.

Binder | binding result
B12 | no binding (tested: Rmax < 5RU; 100 nM and 20 nM)

Molecular target: T1, human IL2Rα Fc fusion protein
Assay: ELISA: human IL2Rα Fc fusion coated at 2 µg/mL, purified His-tagged IL2 titrated from 1 µM in 5x steps, anti-His HRP, OD450
Description: as §2

Binder | binding result
B10 | no binding (tested: 1000 nM)
B9 | no binding (tested: 1000 nM)
